This note sets out measurements from patent US20140308271A1 (GLENMARK PHARMACEUTICALS S A, published 2014).

As a reminder, the Kd is a measure of binding affinity in units of concentration. The EC50 (read off the curve) is the concentration at which the effect is half-maximal.

Numbering of substitutions follows the chain as printed.

Test [1] concerns the target T1, recombinant human TL1A-his (processed secreted human TL1A with an N-terminal his-tag) (human, UniProt O95150 72-251).
T1 construct: also called recombinant histidine tagged human TL1A; histidine-tagged human TL1A
T1 sequence: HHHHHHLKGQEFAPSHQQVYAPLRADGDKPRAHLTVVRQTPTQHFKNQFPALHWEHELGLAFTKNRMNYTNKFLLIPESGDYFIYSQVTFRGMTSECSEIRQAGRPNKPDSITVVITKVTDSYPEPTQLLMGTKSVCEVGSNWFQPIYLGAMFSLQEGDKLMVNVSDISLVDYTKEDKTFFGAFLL
Kind of test: SPR (BIAcore 2000), antibody captured on protein-A, his-tagged human TL1A as analyte. As to the method: Kinetic binding affinity constants (KD) were measured on protein-A captured antibody using recombinant histidine tagged TL1A as analyte. Measurements were conducted on a BIAcore 2000 (GE Healthcare—BIAcore, GE Healthcare Europe GmbH, Glattbrugg, Switzerland) at room temperature, and analyzed with the BiaEvaluation software (BIAcore; v4.1. GE Healthcare Europe GmbH).
Following this capture step, the recombinant histidine tagged human TL1A was injected at different concentrations (1.25 to 125 nM) on the flow-path 1 and 2 (flow-path 1 being used as reference) at a 30 μl/min flow rate. After each binding event, surface was regenerated with glycine buffer pH 1.5 injected for 20 sec (30 μL/min).
Measurements (sensorgram: fc2-fc1) were best fitted with a 1:1 analyte model without mass transfer. To account for the experimental variations in protein-A captured antibody at the beginning of each measurement, the Rmax value was set to local in all fits. Dissociation times were of at least 300-600 seconds. Measurements were performed in duplicate and included zero-concentration samples for referencing. The Chi2 value represents the sum of squared differences between the experimental data and reference data at each point; while the plots of residuals indicate the difference between the experimental and reference data for each point in the fit. Both Chi2 and residual values were used to evaluate the quality of a fit between the experimental data and individual binding models.

The target in test [2] is T2, extracellular part of cynomologus monkey (macaca fascicularis) TL1A protein (cynomolgus monkey (macaca fascicularis), UniProt O95150 57-251 (human entry)).
T2 construct: also called cyno TL1A; cynomologus monkey TL1A
T2 chain: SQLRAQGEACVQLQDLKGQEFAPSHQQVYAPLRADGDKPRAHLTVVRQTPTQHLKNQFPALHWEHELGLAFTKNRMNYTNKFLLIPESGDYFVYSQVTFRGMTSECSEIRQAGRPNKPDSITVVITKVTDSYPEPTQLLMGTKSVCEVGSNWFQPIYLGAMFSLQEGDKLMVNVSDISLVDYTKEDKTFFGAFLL
Kind of test: ELISA on coated extracellular part of TL1A (2 µg/mL), dose dilution of chimeric 5G6, HRP anti-human IgG. The procedure:
(§1) The reactivity of the parental 5G6 antibody (produced as a chimeric antibody with Human Fc) on the extracellular part of TL1A from diverse species was tested by ELISA. The extracellular part of TL1A protein corresponding to human (homo sapiens), rat (ratus norvegicus), mouse (mus musculus) and cynomologus monkey (macaca fascicularis) sequences (SEQ ID NOS: 38, 39, 40 and 41, respectively) was immobilized on high binding 96-well plates (Costar, USA; distributor VWR AG, Nyon, Switzerland) overnight at a concentration of 2 μg/mL at 4° C. in PBS. Plates were blocked with 2% BSA albumin (BSA, Sigma-Aldrich Chemie, Buchs, Switzerland) at RT for one hour. The blocking solution was removed and a dose dilution of 5G6 antibody was applied to the plates. Plates were incubated at RT for 60 minutes, washed six times with PBS 0.01% Tween-20 and the TMB substrate (Bio-rad Laboratories AG, Reinach, Switzerland) was added to the plates. […] The plates were read for absorbance at 450 nm by a microplate reader (Biotek, USA; distributor: WITTEC AG, Littau, Switzerland).
(In general: In an ELISA, binding on a coated surface is turned into a signal by an enzyme label.)

Test [3] has as its target T3, extracellular part of human (homo sapiens) TL1A protein (human, UniProt O95150 57-251).
T3 construct: also called human TL1A
T3 sequence: T2 chain with L13F, D15A, L54F, V93I
Described as above. The procedure: as §1

Test [4] deals with T4, extracellular part of rat (ratus norvegicus) TL1A protein (rat, UniProt Q8K3Y7 61-252).
T4 construct: also called rat TL1A
T4 sequence: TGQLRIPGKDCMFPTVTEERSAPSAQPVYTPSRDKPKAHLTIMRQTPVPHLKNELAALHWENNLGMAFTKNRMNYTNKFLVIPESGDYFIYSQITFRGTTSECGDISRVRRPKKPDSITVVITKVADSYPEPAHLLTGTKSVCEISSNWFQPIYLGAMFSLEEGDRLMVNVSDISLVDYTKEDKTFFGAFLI
Described as above. The procedure: as §1

In test [5] the target is extracellular part of mouse (mus musculus) TL1A protein (mouse). The test is described as above.

B1: 5G6 chimeric antibody (murine 5G6 variable domains fused to human IgG1 heavy chain constant domains and a human kappa constant domain) (antibody, V domains shown)
VH: QVQLQQPGSVLVRPGASVKVSCKASGYTFTSSWMHWAKQRPGQGLEWIGEIHPNSGGTNYNEKFKGKATLTVDTSSSTAYVDLSSLTSEDSAVYYCARGDYYGYVSWFAYWGQGTLVTVSS
VL: DIQMNQSPSSLSASLGDTITITCHASQNINVLLSWYQQKPGNIPKLLIYKASNLHTGVPSRFSGSGSGTGFTFTISSLQPEDIATYYCQQGQSYPYTFGGGTKLEIKR
notes: Human IGHG1 / kappa chimera; also called Chimera; parental 5G6
Consider B1, for which the Kd in test [1] is 0.728 nM. The “EC50 (read off the curve)” value is around 3 ng/mL in test [2], around 3 ng/mL in test [3], around 8 ng/mL in test [4] and 20 ng/mL in test [5].

B2: VH4/VL1 humanized 5G6 antibody (antibody, human IgG1, kappa, V domains shown)
VH: QVQLVQSGAEVKKPGASVKVSCKASGYTFTSSWMHWARQAPGQGLEWIGEIHPNSGGTNYAQKFQGRVTMTVDTSISTAYMELSRLRSDDTAVYYCARGDYYGYVSWFAYWGQGTLVTVSS
VL: B1 VL with N5T, L15V, T18R, I19V, H24Q, S34N, N42K, I43A, G70D, G100Q
For the molecule B2, the Kd in test [1] worked out at 0.681 nM.

B3: VH3/VL1 humanized 5G6 antibody (antibody, human IgG1, kappa, V domains shown)
VH: B2 VH with V68A
VL: B1 VL with N5T, L15V, T18R, I19V, H24Q, S34N, N42K, I43A, G70D, G100Q
Take B3: in test [1], the Kd was 0.249 nM.

B4: VH2/VL2 humanized 5G6 antibody (antibody, human IgG1, kappa, V domains shown)
VH: B2 VH with V68A, M70L, I76S
VL: B1 VL with L15V, T18R, I19V, H24Q, N42K, I43A, G70D, G100Q
Consider B4, for which the Kd in test [1] was determined as 0.857 nM.
